Source: the RNAGym collection of RNA variant scans (doi:10.1073/pnas.2313332121)

B1: TPR t1 (parent)
chain: GACCAAUCUGCCCUCAGAGCUCGAGAACAUCUUCGGAUGCAGAGGAGGCAGGCUUCGGUGGCGCGAUAGCGCCAACGUCCUCAACCUCCAAUGCAUCCCACCACAUGAUGAUGCCUGAAGAGCCUUGGUUUUUUG

Variants of: B1
Experiment: polymerase ribozyme fitness, log enrichment relative to wild type (log ratio); higher = more active; in vitro selection for triplet polymerase activity
How it was run: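 Each subunit of a heterodimeric triplet polymerase ribozyme was represented by a PCR-built, transcribed mutant library that underwent triplicate single-round in vitro selection with frozen incubation at −7 °C. Extended constructs were recovered by gel excision, streptavidin-bead capture and RT-PCR, and Illumina sequencing of input and output libraries kept genotypes with ≥10 input reads and ≥1 read per output. Fitness is the logarithm of genotype enrichment relative to wild-type enrichment, from inverse-variance-weighted replicate averages, with a logarithm base of 2.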

Variant | polymerase ribozyme fitness (log ratio)
C40G G113U C114U U133G | -2.25
C40G G117C | -3.98
C40G U55G U78G | -2.04
C40G U59A | -1.68
C40G U59A C72U G110C G117A A119C U129G U133G | -7.24
C40G U67C C70U U116C U133C | -5.53
C40G U92A | -3.01
C40G U112A | 1.38
C40U A41C | -2.44
C40U A41C G71A | -2.9
C40U A43C C64U G93C C115A | -2.31
C40U A43G G61A C97U | -3.06
C40U A43U A90G G113U | -3.26
C40U A43U C49A U55C G61C A84C G110C U131C | -6.76
C40U A43U G69U | 0.0551
C40U A46C C64U | -2.21
C40U A46G U78G | -0.597
C40U A46U C88U | -2
C40U A50C C76G G77C C80U U131G | -4.6
C40U A68U G69A C88U G93A U133A | -6.63
C40U A83G G128A U129G | -3.53

Variant | polymerase ribozyme fitness (log ratio)
C40U A84C U112A | 0.737
C40U A90G C102G | -4.16
C40U A90U | -1.76
C40U C49A C72G A74U C94U G117C | -6.96
C40U C53U C70U C72U C97U | -1.36
C40U C56A A74C U130C | -1.15
C40U C56G C70U | -2.46
C40U C56G G63C | -3.69
C40U C56U A91C C97U C115U | -3.89
C40U C62U | -0.882
C40U C62U G135U | -1.68
C40U C70A C85U G135U | -4.91
C40U C72G U106A C123G U126A U131A | -1.25
C40U C73G C123G U132A | 0.0747
C40U C73U | -0.508
C40U C80A A84U | -4.52
C40U C80G | -5.42
C40U C80U C86U A91C U112G | -3.87
C40U C94U | -1.54
C40U C98U | -2.01
C40U C99A | -4.45

Variant | polymerase ribozyme fitness (log ratio)
C40U C99U | -3.93
C40U C114U | -2.55
C40U C115A | -0.771
C40U C124G | 1.52
C40U G42A C114U | -1.92
C40U G42A G63C U125G | -2.99
C40U G42C G63U C85U U130A | -5.03
C40U G44A A121U | 0.301
C40U G44A G63A | -1.6
C40U G45C C49U G63U A83U | -5.92
C40U G45U G48U C82G A84G G120A | -2.88
C40U G45U G63A | -2.6
C40U G47A A118G | -2.47
C40U G47A U109A C114U | -6.24
C40U G48A A50C C72A | 0.216
C40U G48U A50C G51A | -3.99
C40U G51U G58A | -4.36
C40U G52U C62U | -1.16
C40U G60A | -0.683
C40U G60A G120U | -0.0652
C40U G60C C82U A90G A95U C97A C123G | -7.02

Variant | polymerase ribozyme fitness (log ratio)
C40U G61U A119U G122U | -0.621
C40U G61U C97A | -5.61
C40U G69A C72U C124A | -1.11
C40U G69C U78A G110A | -5.28
C40U G77A | -1.17
C40U G122A U130A | -1.96
C40U U59C C85G | -2.73
C40U U78C U132A | -1.65
C40U U92C | -1.86
C40U U92C G110A G117C | -6.39
C40U U96G C115G A118U G122U | -3.71
C40U U109C | -4.01
C40U U116A | -3.34
C40U U130G | -0.974
A41C A43U C53U U126C | -2.72
A41C A74G C98U | -1.89
A41C A74U U87C | -0.35
A41C A90C C123G G128C | -2.07
A41C A105C | -5.23
A41C A105G | -3.93
A41C C53U | -0.83
